Measurements published in the supplement of paper PMC12042874.
± gives the uncertainty stated by the source.

Assay: amyloid nucleation score (Sup35N fusion, yeast selection) (log enrichment); library NNK2; higher = more nucleation; inactive = no reads after selection
How it was run: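 The nucleation score is a DiMSum log enrichment of output over input reads, centred on the mode score of non-aggregating sequences. Sequences under 100 input reads were excluded, and reads came from Illumina sequencing of plasmid inserts. Psi-negative yeast expressing Sup35N fused to peptides of 20 random codons were induced with 100 μM copper sulfate for 24 hours and grown 7 days at 30°C on medium lacking adenine and uracil. Random libraries had three technical output replicates.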

Row | Substance | amyloid nucleation score
1 | RIRASKPVFKAFLTPGSYLF | -1.87 ± 1
2 | ASIVNYHFD | inactive
3 | PLIYLSSFYIDCHLWSSFGV | 6.806 ± 0.035
4 | VETMY | 1.24 ± 0.43
5 | NWLIMYNFAR | inactive
6 | VINLGGSE | 0.406 ± 0.38
7 | RYRWDLSPRNTTTN | 3.22 ± 0.072
8 | RLMVWSSL | 1.87 ± 0.38
9 | LVGVPNYVRMHYARLSLTAL | inactive
10 | RKNSLHTMWMGKMVCSCFKL | 5.69 ± 0.063
11 | KHIKWKDCSG | -0.091 ± 0.65
12 | EWDVLGLRGRANN | 1.36 ± 0.35
13 | RWVRA | 1.18 ± 0.21
14 | SGLRYFMFIISNSI | 0.58 ± 0.22
15 | DVAIRVYYMYMYERYVTRLF | inactive
16 | NRLWHPQCLWAFLNIRNPQL | 0.286 ± 0.48
17 | HWMAFVKRTANFDVIDWSAG | -0.278 ± 0.39
18 | KNLRWCQGFSRGIECRSLMV | -0.639 ± 0.55
19 | LGHAISAHVMIIICWKDVFL | 5.08 ± 0.077
20 | NSSVW | -1.01 ± 0.48
21 | LCCVVEN | -0.603 ± 0.42
22 | VALSSVFKEESCRVIRIMES | -1.02 ± 0.32

Row | Substance | amyloid nucleation score
23 | MEPNYGVRGVMYNFVMPRWM | 7.251 ± 0.047
24 | FVNLRVILH | 5.18 ± 0.052
25 | ILYSDFRMYSGRFLSEMVRI | 0.247 ± 0.39
26 | RRQRWKRLTNF | inactive
27 | YVPMQY | 0.382 ± 0.53
28 | VNGSTMFQVMFWLRPVHVIE | -0.119 ± 0.53
29 | DHADWNAYHISTEV | 3.25 ± 0.05
30 | FCLYFSKNF | 3.63 ± 0.13
31 | CTFHFVSGHTTTGSR | 1 ± 0.66
32 | AFVCMRVVLICKIRLNFVRA | -0.519 ± 0.5
33 | GLSNR | 0.458 ± 0.28
34 | LPQMNMGFLGSLNFEGMKRA | 1.47 ± 0.2
35 | YLSVPSGQSGGDGFNDESSV | inactive
36 | GKDGTFRVVPRQEDRSAHWL | -0.464 ± 1.1
37 | NFNFNCA | 3.87 ± 0.093
38 | RGDSATLVGCNVVMGRRFSL | 4.32 ± 0.099
39 | TVYNDNFVCRILNLDITILF | 6.957 ± 0.053
40 | VSWDISMNEVADWVVGAGGA | 1.13 ± 0.42
41 | SDRGYSE | 3.2 ± 0.14
42 | VTALDMFVLSWGCGWGMN | 3.06 ± 0.17
43 | ETVDSESFSGCGIVFLRGSN | -0.908 ± 0.78
44 | PYILRFRRDLRGFRI | 0.449 ± 0.56

Row | Substance | amyloid nucleation score
45 | PQWWRNLLSKSGTNAADCYL | 0.577 ± 0.57
46 | TLLLDQCDSRVDFWSNVP | -0.088 ± 1.1
47 | YLNYNIMS | inactive
48 | VIGRYIDYC | -0.13 ± 0.27
49 | DSNRMNVNRTPDGVLGGCGT | 0.468 ± 0.38
50 | GKTYVGYFLFNLTGTVYFKR | 0.004 ± 1.1
51 | PVRRRGNLFIRRLLSFEKKL | inactive
52 | YRVFMVPTWGGS | 0.381 ± 0.56
53 | YAGFVFFRTL | inactive
54 | MNSIKMEGVRYNNPNDYTFC | -1.14 ± 1.1
55 | QIDYRLIVGRSG | 0.32 ± 0.74
56 | LCGAILIIVHYYG | 5.446 ± 0.047
57 | FNLMLI | inactive
58 | KAVSLPLVGGLC | -0.684 ± 0.34
59 | MCEYLWCMGACNQASLTYLS | 5.787 ± 0.032
60 | AWKAVY | -0.585 ± 0.63
61 | LRSSKKCYTILYVSYTLK | -1.15 ± 1.1
62 | LKWDASKAWILRCQCFRELW | -0.678 ± 0.76
63 | IRLVMWCYHQNDCVVFSSLH | 1.94 ± 0.13
64 | YVANGPFCPDFLLLAGWYGV | 0.447 ± 0.53
65 | LVRMIYTYSVRSDSVSFKSF | -0.132 ± 0.38
66 | FSECLKTTENMKITQKGTPV | 0.459 ± 0.54

Row | Substance | amyloid nucleation score
67 | HFENLTHYTIVSTFFSLGVP | inactive
68 | SFGTFVSGTALLGSMFCTTG | 0.285 ± 0.29
69 | YYGCCMVLTEPVG | 6.29 ± 0.072
70 | MFRSVRFVCWSRLIDNRYMQ | -0.18 ± 0.34
71 | HSICSSRNTVIFMSENFRNR | 4.99 ± 0.057
72 | LSNAYRTGFPLICSLNNHRH | 1.03 ± 0.68
73 | PYISWGSTGFVNAGRY | 3.74 ± 0.072
74 | YFFFIVLDLYLMSCFGVVCE | -1.13 ± 0.76
75 | PSCRWKLHEMSTSSVQFWMK | 5.59 ± 0.064
76 | NDTWR | 3.68 ± 0.049
77 | GWSYTEVYFMIASCYII | 1.16 ± 0.29
78 | IYMDLLQNQSIR | -1.27 ± 1.1
79 | SSVLPGVRPGWNTMWWAACL | 0.844 ± 0.39
80 | QSAFNN | inactive
81 | ILSQPEEGLGGTKSSFCVVF | -0.363 ± 1.1
82 | RFFGLAKMRMLVKCQ | 0.043 ± 0.65
83 | EMYKQVRFVVIGIIC | 1.21 ± 0.24
84 | QLNVSLNRLFLCGGSAELPS | 7.55 ± 0.076
85 | IMFICTGRSLTHTD | -0.642 ± 1.1
86 | RLCGV | -1.17 ± 0.55
